Laboratory results published in patent publication US6906033 (dated 2005).
Residue numbers refer to the chain shown, from its start.

T1: human factor Xa (human, UniProt P00742 41-179; P00742 235-488)
T1 chain 1: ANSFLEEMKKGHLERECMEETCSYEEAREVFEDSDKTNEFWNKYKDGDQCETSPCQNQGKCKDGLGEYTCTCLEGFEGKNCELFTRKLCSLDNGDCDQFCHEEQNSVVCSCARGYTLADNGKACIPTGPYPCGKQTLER
T1 chain 2: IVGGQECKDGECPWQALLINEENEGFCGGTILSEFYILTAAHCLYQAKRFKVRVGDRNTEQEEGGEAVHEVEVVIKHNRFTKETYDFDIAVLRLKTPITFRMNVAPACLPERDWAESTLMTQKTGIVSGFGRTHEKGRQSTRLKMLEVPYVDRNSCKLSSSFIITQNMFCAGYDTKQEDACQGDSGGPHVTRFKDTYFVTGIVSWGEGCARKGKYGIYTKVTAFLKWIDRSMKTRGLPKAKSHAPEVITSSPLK

T2: human factor XIIa (human, UniProt P00748 20-615, biotinylated with Biotin Ester (Zymed); sites not stated)
T2 chain: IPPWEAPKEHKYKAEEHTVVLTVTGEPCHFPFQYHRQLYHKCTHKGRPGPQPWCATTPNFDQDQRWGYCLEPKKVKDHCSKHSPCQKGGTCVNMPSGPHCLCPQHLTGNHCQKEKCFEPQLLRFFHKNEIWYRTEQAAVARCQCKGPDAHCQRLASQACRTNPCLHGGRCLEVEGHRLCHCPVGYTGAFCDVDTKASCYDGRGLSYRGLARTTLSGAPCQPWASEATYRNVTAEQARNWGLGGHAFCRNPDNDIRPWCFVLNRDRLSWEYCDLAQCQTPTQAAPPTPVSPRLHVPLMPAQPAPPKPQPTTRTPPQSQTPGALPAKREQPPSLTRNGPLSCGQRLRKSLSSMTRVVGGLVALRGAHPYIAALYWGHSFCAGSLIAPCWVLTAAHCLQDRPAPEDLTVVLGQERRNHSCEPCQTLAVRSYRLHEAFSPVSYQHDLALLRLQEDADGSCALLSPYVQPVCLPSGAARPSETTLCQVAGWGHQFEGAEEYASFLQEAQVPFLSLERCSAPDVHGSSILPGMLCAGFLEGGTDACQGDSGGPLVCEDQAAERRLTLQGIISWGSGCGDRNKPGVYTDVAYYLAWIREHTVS

B1: TW6189 (protein)
chain: EVVREVCSEQAETGPCRAMIWRWYFDVTEGKCAPFFYGGCYGNRNNFDTEEYCMAVCGSAI
B2: TW6202 (protein)
chain: B1 chain with M19G, Y41G
B3: TW6169 (protein)
chain: B1 chain with M19L, W21L, Y41G
B4: TW6205 (protein)
chain: B1 chain with M19L, W21S, R22A, Y41G
B5: DD113 (protein)
chain: B1 chain with M19L, W21P, Y41G
B6: TW6203 (protein)
chain: B1 chain with M19G, W21P, Y41G
B7: DD114 (protein)
chain: B1 chain with M19A, W21S, Y41R
B8: TW6183 (protein)
chain: B1 chain with I20H, W21F, Y41G
B9: BG003 (protein)
chain: B1 chain with I20L, W21H, Y41G
B10: TW6201 (protein)
chain: B1 chain with M19G, W21Y, Y41G
B11: TW6190 (protein)
chain: B1 chain with M19A, W21S
B12: TW6204 (protein)
chain: B1 chain with M19A, W21S, R22A, Y41G
B13: TW6184 (protein)
chain: B1 chain with I20H, W21Y, Y41G
B14: TW6175 (protein)
chain: B1 chain with M19L, W21F, Y41G
B15: DD129 (protein)
chain: B1 chain with M19L, I20F, W21S, Y41G
B16: TW6178 (protein)
chain: B1 chain with W21S, Y41G, G42R
B17: TW6139 (protein)
chain: B1 chain with W21S, Y41H
B18: TW6153 (protein)
chain: B1 chain with W21S, Y41I
B19: TW6174 (protein)
chain: B1 chain with M19L, I20H, W21S, Y41G
B20: DD101 (protein)
chain: B1 chain with W21S, Y41D
B21: TW6173 (protein)
chain: B1 chain with M19A, I20H, W21S, Y41G
B22: TW6151 (protein)
chain: B1 chain with W21S, Y41E
B23: TW6161 (protein)
chain: B1 chain with W21S
B24: BG002 (protein)
chain: B1 chain with M19L, I20L, W21S, Y41G
B25: TW122 (protein)
chain: EVCSEQAETGPCRAMISRWYFDVTEGKCAPFFYGGCGANRNNFDTEEYCMAVCGSAI
B26: TW6159 (protein)
chain: B1 chain with W21S, Y41V
B27: TW6147 (protein)
chain: B1 chain with W21S, Y41A
B28: TW6208 (protein)
chain: B1 chain with A18G, W21S, Y41G
B29: TW6167 (protein)
chain: B1 chain with T13P, W21S, Y41G
B30: DD110 (protein)
chain: B1 chain with M19L, W21S, Y41G
B31: DD112 (protein)
chain: B1 chain with M19V, W21S, Y41G
B32: BG031 (protein)
chain: B1 chain with T13V, W21S, Y41G
B33: TW6179 (protein)
chain: B1 chain with M19G, W21S, Y41G
B34: DD108 (protein)
chain: B1 chain with M19A, W21S, Y41G
B35: BG032 (protein)
chain: B1 chain with T13S, W21S, Y41G
B36: DD109 (protein)
chain: B1 chain with M19I, W21S, Y41G

target: T3, human plasma kallikrein (human, UniProt P03952 20-638); experiment: enzyme inhibition
T3 sequence (P03952 20-638): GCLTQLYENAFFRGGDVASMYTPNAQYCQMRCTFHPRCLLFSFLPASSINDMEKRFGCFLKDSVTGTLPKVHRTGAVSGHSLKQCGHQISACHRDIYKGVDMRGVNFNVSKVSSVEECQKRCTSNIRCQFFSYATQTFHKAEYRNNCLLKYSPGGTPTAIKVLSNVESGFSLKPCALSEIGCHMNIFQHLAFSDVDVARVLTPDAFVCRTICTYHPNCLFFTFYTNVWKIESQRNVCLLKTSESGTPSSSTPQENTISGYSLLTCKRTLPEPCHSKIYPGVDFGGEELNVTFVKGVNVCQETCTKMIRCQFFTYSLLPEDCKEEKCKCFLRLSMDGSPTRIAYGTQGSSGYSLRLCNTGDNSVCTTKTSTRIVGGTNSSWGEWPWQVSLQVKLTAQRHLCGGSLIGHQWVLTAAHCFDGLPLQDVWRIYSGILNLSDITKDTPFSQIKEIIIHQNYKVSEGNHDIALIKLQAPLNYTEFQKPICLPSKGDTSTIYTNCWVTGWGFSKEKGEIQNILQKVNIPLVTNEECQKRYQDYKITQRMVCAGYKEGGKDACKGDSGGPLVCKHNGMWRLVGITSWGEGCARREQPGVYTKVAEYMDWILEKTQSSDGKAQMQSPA

Row | Binder | Ki
1 | B1 | 4 nM

Target: T1, human factor Xa
Experiment: enzyme inhibition

Row | Binder | Ki
2 | B1 | 34 nM

Target: T2, human factor XIIa
Experiment: enzyme inhibition

Row | Binder | Ki
3 | B2 | 1240 nM
4 | B3 | 619 nM
5 | B4 | 195 nM
6 | B5 | 293 nM
7 | B6 | 5040 nM
8 | B7 | 224 nM
9 | B8 | 12400 nM
10 | B9 | 467 nM
11 | B10 | 419 nM
12 | B11 | 589 nM
13 | B12 | 147 nM
14 | B13 | 14000 nM
15 | B14 | 35 nM

target: T3, human plasma kallikrein; experiment: enzyme inhibition; remark: another data set of the same source

Row | Binder | Ki
16 | B2 | 128 nM
17 | B3 | 1.2 nM
18 | B5 | 0.85 nM
19 | B6 | 31.2 nM
20 | B7 | 0.7 nM
21 | B9 | 36 nM
22 | B10 | 34.6 nM
23 | B11 | 0.83 nM

Target: T1, human factor Xa
Experiment: enzyme inhibition
Remark: another data set of the same source

Row | Binder | Ki
24 | B3 | 111 nM
25 | B4 | 29 nM
26 | B5 | 74 nM
27 | B8 | 159 nM
28 | B11 | 1400 nM
29 | B12 | 87 nM
30 | B13 | 214 nM
31 | B14 | 56 nM

Target: T2, human factor XIIa
Experiment: enzyme inhibition
Remark: another data set of the same source

Row | Binder | Ki
32 | B15 | 1860 nM
33 | B16 | 444 nM
34 | B17 | 152 nM
35 | B18 | 65 nM
36 | B19 | 2800 nM
37 | B20 | 924 nM
38 | B21 | 1430 nM
39 | B22 | 1160 nM
40 | B23 | 1510 nM
41 | B24 | 403 nM

target: T3, human plasma kallikrein; experiment: enzyme inhibition; remark: another data set of the same source

Row | Binder | Ki
42 | B25 | 32 nM
43 | B15 | 3.6 nM
44 | B16 | 16 nM
45 | B17 | 19 nM
46 | B18 | 11.2 nM
47 | B26 | 17 nM
48 | B20 | 64 nM
49 | B22 | 163 nM
50 | B23 | 7.5 nM
51 | B24 | 0.98 nM

Target: T1, human factor Xa
Experiment: enzyme inhibition
Remark: another data set of the same source

Row | Binder | Ki
52 | B25 | 581 nM
53 | B15 | 6 nM
54 | B17 | 78 nM
55 | B18 | 36 nM
56 | B26 | 64 nM
57 | B22 | 954 nM
58 | B23 | 8.7 nM
59 | B24 | 60 nM

Target: T2, human factor XIIa
Experiment: enzyme inhibition
Remark: another data set of the same source

Row | Binder | Ki
60 | B27 | 1090 nM

target: T3, human plasma kallikrein; experiment: enzyme inhibition; remark: another data set of the same source

Row | Binder | Ki
61 | B27 | 35 nM

Target: T1, human factor Xa
Experiment: enzyme inhibition
Remark: another data set of the same source

Row | Binder | Ki
62 | B27 | 179 nM

Target: T2, human factor XIIa
Experiment: enzyme inhibition
Remark: another data set of the same source

Row | Binder | Ki
63 | B28 | 369 nM
64 | B29 | 3640 nM
65 | B30 | 624 nM
66 | B31 | 998 nM
67 | B32 | 498 nM
68 | B33 | 368 nM
69 | B34 | 1600 nM
70 | B35 | 731 nM
71 | B36 | 1680 nM

target: T3, human plasma kallikrein; experiment: enzyme inhibition; remark: another data set of the same source

Row | Binder | Ki
72 | B29 | 61 nM
73 | B30 | 2.1 nM
74 | B31 | 6.8 nM
75 | B32 | 34 nM
76 | B33 | 78 nM
77 | B34 | 1.7 nM
78 | B35 | 49 nM
79 | B36 | 9.5 nM

Target: T1, human factor Xa
Experiment: enzyme inhibition
Remark: another data set of the same source

Row | Binder | Ki
80 | B29 | 288 nM
81 | B30 | 55 nM
82 | B34 | 123 nM
83 | B36 | 421 nM
